What was measured:
[1] = substrate: F protein of hRSV strain Long (hRSV strain Long); experiment: cell-based or functional assay
[2] = biological target: hRSV FTM- NN protein (membrane anchorless form of the Long fusion protein, 70 kDa) (hRSV strain Long); experiment: SPR (Biacore T100), FTM- NN amine-coupled, 1:1 Langmuir fit
[3] = biological target: hRSV FTM- NN protein (membrane anchorless form of the Long fusion protein, 70 kDa) (hRSV strain Long); experiment: competition ELISA on coated FTM- NN; competitor biotinylated Synagis Fab
[4] = substrate: F protein of hRSV strain Long (hRSV strain Long); experiment: binding ELISA on coated hRSV (Hytest), anti-VHH detection
[5] = biological target: hRSV FTM- NN protein (membrane anchorless form of the Long fusion protein, 70 kDa) (hRSV strain Long); experiment: binding ELISA on immobilised FTM- protein; detection with rabbit anti-VHH and HRP goat anti-rabbit
[6] = substrate: F protein of hRSV strain B-1 (hRSV strain B-1); experiment: cell-based or functional assay
[7] = substrate: F protein of Long escape mutant R7C2/1 (K272E in antigenic site II) (hRSV strain Long escape mutant); experiment: ELISA on extract of HEp-2 cells infected with R7C2/1
[8] = biological target: hRSV FTM- NN protein (membrane anchorless form of the Long fusion protein, 70 kDa) (hRSV strain Long); experiment: SPR (Biacore) on Ftm-NN protein
[9] = biological target: hRSV FTM- NN protein (membrane anchorless form of the Long fusion protein, 70 kDa) (hRSV strain Long); experiment: SPR (Biacore) on Ftm-NN protein; Table B-5 run (selected NC41 variants), separate from Table B-1
[10] = biological target: hRSV FTM- NN protein (membrane anchorless form of the Long fusion protein, 70 kDa) (hRSV strain Long); experiment: Alphascreen competition: FTM- NN (0.3 nM) bridged by biotinylated Synagis Fab and 101F Fab acceptor beads

Binder	RSV neutralization IC50 [1] [nM]	Kd [2] [nM]	koff [2] [s⁻¹]	kon [2] [M⁻¹ s⁻¹]	EC50 [3] [nM]	EC50 [4] [nM]	EC50 (read off the curve) [5] [nM]	further results
Nanobody 7B2 (VHH) VHH: EVQLVESGGGLVQAGDSLRLSCAASGRTFSSYAMGWFRQAPGKEREFVAAISWSDGSTYYADSVKGRFTISRDNAKNTVYLQMNSLKPEDTAVYYCAADLTSTNPGSYIYIWAYDYWGQGTQVTVSS	91	1.1	0.00065	570000	1.9	0.09	0.3	–
RSV407 (NC41-15GS-NC41-15GS-NC41) (VHH) EVQLVESGGGLVQAGGSLSISCAASGGSLSNYVLGWFRQAPGKEREFVAAINWRGDITIGPPNVEGRFTISRDNAKNTGYLQMNSLAPDDTAVYYCGAGTPLNPGAYIYDWSYDYWGRGTQVTVSSGGGGSGGGGSGGGGSEVQLVESGGGLVQAGGSLSISCAASGGSLSNYVLGWFRQAPGKEREFVAAINWRGDITIGPPNVEGRFTISRDNAKNTGYLQMNSLAPDDTAVYYCGAGTPLNPGAYIYDWSYDYWGRGTQVTVSSGGGGSGGGGSGGGGSEVQLVESGGGLVQAGGSLSISCAASGGSLSNYVLGWFRQAPGKEREFVAAINWRGDITIGPPNVEGRFTISRDNAKNTGYLQMNSLAPDDTAVYYCGAGTPLNPGAYIYDWSYDYWGRGTQVTVSS	–	–	–	–	–	–	0.2	Neutralization IC50 [6]: 0.66 nM; Neutralization, ratio to Synagis [6]: 3 fold; Neutralization IC50 [1]: 0.0941 nM; Neutralization, ratio to Synagis [1]: 59 fold
RSV106 (7B2-15GS-7B2) (VHH) EVQLVESGGGLVQAGDSLRLSCAASGRTFSSYAMGWFRQAPGKEREFVAAISWSDGSTYYADSVKGRFTISRDNAKNTVYLQMNSLKPEDTAVYYCAADLTSTNPGSYIYIWAYDYWGQGTQVTVSSGGGGSGGGGSGGGGSEVQLVESGGGLVQAGDSLRLSCAASGRTFSSYAMGWFRQAPGKEREFVAAISWSDGSTYYADSVKGRFTISRDNAKNTVYLQMNSLKPEDTAVYYCAADLTSTNPGSYIYIWAYDYWGQGTQVTVSS	–	–	–	–	–	–	–	binding (% reactivity relative to Long wild type) [7]: 4.4%
Nanobody 191E4 (VHH) VHH: EVQLVESGGGLVQAGGSLRLSCAASGPTFSADTMGWFRQAPGKEREFVATIPWSGGIAYYSDSVKGRFTMSRDNAKNTVDLQMNSLKPEDTALYYCAGSSRIYIYSDSLSERSYDYWGQGTQVTVSS	–	0.27	0.00015	570000	–	0.083	–	binding (% reactivity relative to Long wild type) [7]: > 75%
RSV116 (NC41-15GS-NC41) (bispecific antibody) EVQLVESGGGLVQAGGSLSISCAASGGSLSNYVLGWFRQAPGKEREFVAAINWRGDITIGPPNVEGRFTISRDNAKNTGYLQMNSLAPDDTAVYYCGAGTPLNPGAYIYDWSYDYWGRGTQVTVSSGGGGSGGGGSGGGGSEVQLVESGGGLVQAGGSLSISCAASGGSLSNYVLGWFRQAPGKEREFVAAINWRGDITIGPPNVEGRFTISRDNAKNTGYLQMNSLAPDDTAVYYCGAGTPLNPGAYIYDWSYDYWGRGTQVTVSS	–	–	–	–	–	–	0.3	–
Nanobody 191D3 (VHH) VHH: EVQLVESGGGLVQAGGSLRLSCEASGRTYSRYGMGWFRQAPGKEREFVAAVSRLSGPRTVYADSVKGRFTISRDNAENTVYLQMNSLKPEDTAVYTCAAELTNRNSGAYYYAWAYDYWGQGTQVTVSS	253	1.9	0.0028	1.5e+06	5.9	0.15	–	–
Nanobody 1E4 (VHH) VHH: EVQLVESGGGLVQAGGSLRLSCEASGRTFSSYGMGWFRQAPGKEREFVAAVSRLSGPRTVYADSVKGRFTISRDNAENTVYLQMNSLKPEDTAVYTCAAELTNRNPGAYYYTWAYDYWGQGTQVTVSS	380	1.6	0.0013	800000	4.5	0.066	–	–
Nanobody 15B3 (VHH) VHH: EVQLVESGGGLVQPGGSLRLSCAASGLTLDYYALGWFRQAPGKEREGVSCISSSDHSTTYTDSVKGRFTISWDNAKNTLYLQMNSLKPGDTAVYYCAADPALGCYSGSYYPRYDYWGQGTQVTVSS	–	0.67	0.00027	410000	–	0.058	–	binding (% reactivity relative to Long wild type) [7]: > 75%
Nanobody NC23 (VHH) VHH: EVQLVESGGGLVQPGGSLRLSCAASGRTFSSIAMGWFRQAPGKEREFVAAISWSRGRTFYADSVKGRFIISRDDAANTAYLQMNSLKPEDTAVYYCAVDTASWNSGSFIYDWAYDHWGQGTQVTVSS	144	0.92	0.00074	800000	2.3	0.1	–	–
Nanobody NC41 (VHH) VHH: EVQLVESGGGLVQAGGSLSISCAASGGSLSNYVLGWFRQAPGKEREFVAAINWRGDITIGPPNVEGRFTISRDNAKNTGYLQMNSLAPDDTAVYYCGAGTPLNPGAYIYDWSYDYWGRGTQVTVSS	58	8.1	0.0067	820000	32	0.41	1	koff [8]: 0.0067 s⁻¹; kon [8]: 1.7e+06 M⁻¹ s⁻¹; Neutralization IC50 (first assay) [1]: 202 nM; Neutralization IC50 (second assay) [1]: 122 nM; Kd [9]: 4 nM
Nanobody 15H8 (VHH) VHH: EVQLVESGGGLVQAGGSLRLSCAASGRSFSNYVLGWFRQAPGKEREFVAAISFRGDSAIGAPSVEGRFTISRDNAKNTGYLQMNSLVPDDTAVYYCGAGTPLNPGAYIYDWSYDYWGRGTQVTVSS	200	16	0.021	1.2e+06	39	0.83	1	–
RSV400 (7B2-15GS-7B2-15GS-7B2) (bispecific antibody) EVQLVESGGGLVQAGDSLRLSCAASGRTFSSYAMGWFRQAPGKEREFVAAISWSDGSTYYADSVKGRFTISRDNAKNTVYLQMNSLKPEDTAVYYCAADLTSTNPGSYIYIWAYDYWGQGTQVTVSSGGGGSGGGGSGGGGSEVQLVESGGGLVQAGDSLRLSCAASGRTFSSYAMGWFRQAPGKEREFVAAISWSDGSTYYADSVKGRFTISRDNAKNTVYLQMNSLKPEDTAVYYCAADLTSTNPGSYIYIWAYDYWGQGTQVTVSSGGGGSGGGGSGGGGSEVQLVESGGGLVQAGDSLRLSCAASGRTFSSYAMGWFRQAPGKEREFVAAISWSDGSTYYADSVKGRFTISRDNAKNTVYLQMNSLKPEDTAVYYCAADLTSTNPGSYIYIWAYDYWGQGTQVTVSS	–	–	–	–	–	–	0.3	binding (% reactivity relative to Long wild type) [7]: 13%
RSV404 (15H8-15GS-15H8-15GS-15H8) (VHH) EVQLVESGGGLVQAGGSLRLSCAASGRSFSNYVLGWFRQAPGKEREFVAAISFRGDSAIGAPSVEGRFTISRDNAKNTGYLQMNSLVPDDTAVYYCGAGTPLNPGAYIYDWSYDYWGRGTQVTVSSGGGGSGGGGSGGGGSEVQLVESGGGLVQAGGSLRLSCAASGRSFSNYVLGWFRQAPGKEREFVAAISFRGDSAIGAPSVEGRFTISRDNAKNTGYLQMNSLVPDDTAVYYCGAGTPLNPGAYIYDWSYDYWGRGTQVTVSSGGGGSGGGGSGGGGSEVQLVESGGGLVQAGGSLRLSCAASGRSFSNYVLGWFRQAPGKEREFVAAISFRGDSAIGAPSVEGRFTISRDNAKNTGYLQMNSLVPDDTAVYYCGAGTPLNPGAYIYDWSYDYWGRGTQVTVSS	–	–	–	–	–	–	0.3	–
Synagis® Fab (Fab, part only; not given: Constant regions, biotin sites, V domains shown, not shown: another chain or arm of the molecule) VH: QVTLRESGPALVKPTQTLTLTCTFSGFSLSTSGMSVGWIRQPPGKALEWLADIWWDDKKDYNPSLKSRLTISKDTSKNQVVLKVTNMDPADTATYYCARSMITNWYFDVWGAGTTVTVSS VL: DIQMTQSPSTLSASVGDRVTITCKCQLSVGYMHWYQQKPGKAPKLLIYDTSKLASGVPSRFSGSGSGTEFTLTISSLQPDDFATYYCFQGSGYPFTFGGGTKLEIK	–	–	–	–	–	–	–	IC50 [10]: 0.597 nM

Reference: patent publication US20150118233A1
